The subject of this data set is La protein (Homo sapiens). In words: immunoprecipitation.

The values that follow come from publication PMC2063832.

Take EBER1 wild type: the binding signal (reference (wild type)) was determined as 1.
